Results on 1 molecule are retold here after patent US20260055207A1 (NATIONAL UNIVERSITY CORPORATION YAMAGATA UNIVERSITY, published 2026).

The test concerns the target T1, HER2-hFc (UniProt P04626 23-652).
T1 construct: Immobilized on a CM5 sensor chip; also called HER2 immobilized on a sensor chip; not shown: hFc part
Briefly: SPR (Biacore T200), HER2-hFc immobilized on CM5 chip, antibody flowed at 1-16 nmol/l. On the procedure: It was examined using a surface plasmon resonance method whether the Herceptin-Okt3 bispecific antibody obtained in Example 1(6) above could maintain a binding to Her2. Specifically: the Herceptin-Okt3 bispecific antibody was allowed to flow over HER2 immobilized on a sensor chip at a predetermined flow rate, and measurement was conducted using an intermolecular interaction analyzer. The Herceptin-Okt3 bispecific antibody purified in Example 1(6) above was diluted with 1×PBS-Tween20 to 1 nmol/l. 2 nmol/l. 4 nmol/l. 8 nmol/l, and 16 nmol/l. After the dilution, a surface plasmon resonance measuring apparatus (Biacore T200, manufactured by Cytiva) was used to measure the binding strength by allowing the diluted solution containing the Herceptin-Okt3 bispecific antibody to flow over HER2-hFc immobilized on a CM5 sensor chip (manufactured by GE Healthcare).
In FIG. 7, the horizontal axis indicates the time (minute), and the vertical axis indicates the response unit (RU).
Background: SPR reads the build-up and loss of mass on a sensor chip optically.

B1: Herceptin-OKT3 bispecific antibody (bispecific antibody)
heavy 1: not shown
light 1: DIQMTQSPSSLSASVGDRVTITCSASSSVSYMNWYQQTPGKAPKRWIYDTSKLASGVPSRFSGSGSGTDYTFTISSLQPEDIATYYCQQWSSNPFTFGQGTKLQITRTVA
heavy 2: not shown
light 2: not shown
For the molecule B1, the Kd – broadly, a measure of binding affinity in units of concentration – was found to be 2.25 nM.
